Data from the Human Domainome abundance scans (Beltran et al. 2025).
± gives the uncertainty stated by the source.

B1: Mineralocorticoid receptor, residues 600 to 675; numbered along this chain, P08235 (parent)
chain: SKICLVCGDEASGCHYGVVTCGSCKVFFKRAVEGQHNYLCAGRNDCIIDKIRRKNCPACRLQKCLQAGMNLGARKS

Variants of: B1
Assay: abundance fitness (aPCA) (normalised: wild type 0, dead -1); higher = more abundant; growth selection in yeast, the domain comes from the species named
Conditions: Homo sapiens

**Q.** With SKICLVCGDEASGCHYGVVTCGSCKVFFKRAVEGQMNYLCAGRNDCIIDKIRRKNCPACRLQKCLQAGMNLGARKS [H36M] as the variant, how does the abundance fitness read?
**A.** -0.046 ± 0.039

**Q.** Which abundance fitness does the source give for SKICLVCGDEASGCHYGVVTCGSCKVFFKRAVEGQWNYLCAGRNDCIIDKIRRKNCPACRLQKCLQAGMNLGARKS [H36W] here?
**A.** -0.157 ± 0.039

**Q.** With SKICLVCGDEASGCHYGVVTCGSCKVFFKRAVEGQLNYLCAGRNDCIIDKIRRKNCPACRLQKCLQAGMNLGARKS [H36L] as the variant, how does the abundance fitness read?
**A.** -0.087 ± 0.028

**Q.** With SKICLVCGDEASGCHYGVVTCGSCKVFFKRAVEGQTNYLCAGRNDCIIDKIRRKNCPACRLQKCLQAGMNLGARKS [H36T] as the variant, how does the abundance fitness read?
**A.** -0.022 ± 0.037

**Q.** With SKICLVCGDEASGCHYGVVTCGSCKVFFKRAVEGQDNYLCAGRNDCIIDKIRRKNCPACRLQKCLQAGMNLGARKS [H36D] as the variant, how does the abundance fitness read?
**A.** 0.005 ± 0.041

**Q.** For SKICLVCGDEASGCHYGVVTCGSCKVFFKRAVEGQFNYLCAGRNDCIIDKIRRKNCPACRLQKCLQAGMNLGARKS [H36F], which abundance fitness is on record?
**A.** -0.023 ± 0.045

**Q.** Which abundance fitness does the source give for SKICLVCGDEASGCHYGVVTCGSCKVFFKRAVEGQYNYLCAGRNDCIIDKIRRKNCPACRLQKCLQAGMNLGARKS [H36Y] here?
**A.** -0.043 ± 0.039

**Q.** For SKICLVCGDEASGCHYGVVTCGSCKVFFKRAVEGQNNYLCAGRNDCIIDKIRRKNCPACRLQKCLQAGMNLGARKS [H36N], which abundance fitness is on record?
**A.** 0.001 ± 0.042

**Q.** Which abundance fitness does the source give for SKICLVCGDEASGCHYGVVTCGSCKVFFKRAVEGQGNYLCAGRNDCIIDKIRRKNCPACRLQKCLQAGMNLGARKS [H36G] here?
**A.** -0.012 ± 0.027

**Q.** For SKICLVCGDEASGCHYGVVTCGSCKVFFKRAVEGQINYLCAGRNDCIIDKIRRKNCPACRLQKCLQAGMNLGARKS [H36I], which abundance fitness is on record?
**A.** -0.022 ± 0.043

**Q.** Which abundance fitness does the source give for SKICLVCGDEASGCHYGVVTCGSCKVFFKRAVEGQKNYLCAGRNDCIIDKIRRKNCPACRLQKCLQAGMNLGARKS [H36K] here?
**A.** -0.138 ± 0.054

**Q.** With SKICLVCGDEASGCHYGVVTCGSCKVFFKRAVEGQSNYLCAGRNDCIIDKIRRKNCPACRLQKCLQAGMNLGARKS [H36S] as the variant, how does the abundance fitness read?
**A.** 0.01 ± 0.03

**Q.** For SKICLVCGDEASGCHYGVVTCGSCKVFFKRAVEGQENYLCAGRNDCIIDKIRRKNCPACRLQKCLQAGMNLGARKS [H36E], which abundance fitness is on record?
**A.** -0.004 ± 0.038

**Q.** With SKICLVCGDEASGCHYGVVTCGSCKVFFKRAVEGQPNYLCAGRNDCIIDKIRRKNCPACRLQKCLQAGMNLGARKS [H36P] as the variant, how does the abundance fitness read?
**A.** -0.021 ± 0.036

**Q.** For SKICLVCGDEASGCHYGVVTCGSCKVFFKRAVEGQQNYLCAGRNDCIIDKIRRKNCPACRLQKCLQAGMNLGARKS [H36Q], which abundance fitness is on record?
**A.** -0.004 ± 0.042

**Q.** With SKICLVCGDEASGCHYGVVTCGSCKVFFKRAVEGQANYLCAGRNDCIIDKIRRKNCPACRLQKCLQAGMNLGARKS [H36A] as the variant, how does the abundance fitness read?
**A.** 0.025 ± 0.03

**Q.** Which abundance fitness does the source give for SKICLVCGDEASGCHYGVVTCGSCKVFFKRAVEGQCNYLCAGRNDCIIDKIRRKNCPACRLQKCLQAGMNLGARKS [H36C] here?
**A.** -0.042 ± 0.042

**Q.** Which abundance fitness does the source give for SKICLVCGDEASGCHYGVVTCGSCKVFFKRAVEGQHNILCAGRNDCIIDKIRRKNCPACRLQKCLQAGMNLGARKS [Y38I] here?
**A.** -0.069 ± 0.046

**Q.** For SKICLVCGDEASGCHYGVVTCGSCKVFFKRAVEGQHNMLCAGRNDCIIDKIRRKNCPACRLQKCLQAGMNLGARKS [Y38M], which abundance fitness is on record?
**A.** -0.117 ± 0.1

**Q.** For SKICLVCGDEASGCHYGVVTCGSCKVFFKRAVEGQHNNLCAGRNDCIIDKIRRKNCPACRLQKCLQAGMNLGARKS [Y38N], which abundance fitness is on record?
**A.** -0.098 ± 0.039

**Q.** Which abundance fitness does the source give for SKICLVCGDEASGCHYGVVTCGSCKVFFKRAVEGQHNVLCAGRNDCIIDKIRRKNCPACRLQKCLQAGMNLGARKS [Y38V] here?
**A.** 0.012 ± 0.046

**Q.** With SKICLVCGDEASGCHYGVVTCGSCKVFFKRAVEGQHNKLCAGRNDCIIDKIRRKNCPACRLQKCLQAGMNLGARKS [Y38K] as the variant, how does the abundance fitness read?
**A.** -0.026 ± 0.067

**Q.** Which abundance fitness does the source give for SKICLVCGDEASGCHYGVVTCGSCKVFFKRAVEGQHNDLCAGRNDCIIDKIRRKNCPACRLQKCLQAGMNLGARKS [Y38D] here?
**A.** -0.041 ± 0.05

**Q.** With SKICLVCGDEASGCHYGVVTCGSCKVFFKRAVEGQHNSLCAGRNDCIIDKIRRKNCPACRLQKCLQAGMNLGARKS [Y38S] as the variant, how does the abundance fitness read?
**A.** -0.049 ± 0.036

**Q.** With SKICLVCGDEASGCHYGVVTCGSCKVFFKRAVEGQHNFLCAGRNDCIIDKIRRKNCPACRLQKCLQAGMNLGARKS [Y38F] as the variant, how does the abundance fitness read?
**A.** -0.027 ± 0.049

**Q.** Which abundance fitness does the source give for SKICLVCGDEASGCHYGVVTCGSCKVFFKRAVEGQHNWLCAGRNDCIIDKIRRKNCPACRLQKCLQAGMNLGARKS [Y38W] here?
**A.** -0.047 ± 0.084

**Q.** For SKICLVCGDEASGCHYGVVTCGSCKVFFKRAVEGQHNQLCAGRNDCIIDKIRRKNCPACRLQKCLQAGMNLGARKS [Y38Q], which abundance fitness is on record?
**A.** -0.118 ± 0.077

**Q.** Which abundance fitness does the source give for SKICLVCGDEASGCHYGVVTCGSCKVFFKRAVEGQHNLLCAGRNDCIIDKIRRKNCPACRLQKCLQAGMNLGARKS [Y38L] here?
**A.** -0.054 ± 0.039

**Q.** With SKICLVCGDEASGCHYGVVTCGSCKVFFKRAVEGQHNALCAGRNDCIIDKIRRKNCPACRLQKCLQAGMNLGARKS [Y38A] as the variant, how does the abundance fitness read?
**A.** -0.027 ± 0.042

**Q.** Which abundance fitness does the source give for SKICLVCGDEASGCHYGVVTCGSCKVFFKRAVEGQHNTLCAGRNDCIIDKIRRKNCPACRLQKCLQAGMNLGARKS [Y38T] here?
**A.** -0.051 ± 0.04

**Q.** Which abundance fitness does the source give for SKICLVCGDEASGCHYGVVTCGSCKVFFKRAVEGQHNHLCAGRNDCIIDKIRRKNCPACRLQKCLQAGMNLGARKS [Y38H] here?
**A.** -0.059 ± 0.048

**Q.** For SKICLVCGDEASGCHYGVVTCGSCKVFFKRAVEGQHNGLCAGRNDCIIDKIRRKNCPACRLQKCLQAGMNLGARKS [Y38G], which abundance fitness is on record?
**A.** -0.164 ± 0.064

**Q.** Which abundance fitness does the source give for SKICLVCGDEASGCHYGVVTCGSCKVFFKRAVEGQHNPLCAGRNDCIIDKIRRKNCPACRLQKCLQAGMNLGARKS [Y38P] here?
**A.** -0.038 ± 0.043

**Q.** With SKICLVCGDEASGCHYGVVTCGSCKVFFKRAVEGQHNCLCAGRNDCIIDKIRRKNCPACRLQKCLQAGMNLGARKS [Y38C] as the variant, how does the abundance fitness read?
**A.** -0.153 ± 0.057

**Q.** Which abundance fitness does the source give for SKICLVCGDEASGCHYGVVTCGSCKVFFKRAVEGQHNRLCAGRNDCIIDKIRRKNCPACRLQKCLQAGMNLGARKS [Y38R] here?
**A.** -0.088 ± 0.05

**Q.** For SKICLVCGDEASGCHYGVVTCGSCKVFFKRAVEGQHNYECAGRNDCIIDKIRRKNCPACRLQKCLQAGMNLGARKS [L39E], which abundance fitness is on record?
**A.** -0.047 ± 0.057
